Test results: PMC9667317, “Metal migration and subunit swapping in ALS-linked SOD1: Zn^2+ transfer between mutant and wild-type occurs faster than the rate of heterodimerization” (The Journal of Biological Chemistry, 2022)

Assays:
Conditions in all cases: both partners purified
[1] = target: T1, WT Cu, Zn superoxide dismutase-1 (SOD1), recombinant human (human, UniProt P00441 1-154); assay: capillary electrophoresis; binder (first named) as apo-SOD1, target (second named, WT or TD) as 4Zn-SOD1; 15 μM dimer each ([SOD1]total = 30 μM), followed over time; 10 mM potassium phosphate pH 7.4, CE at 22 °C, storage at 15 °C; KHet assumed from the fit extrapolated to t = 5000 min
T1 construct: Cu, Zn superoxide dismutase-1 (SOD1), human; Homodimer; intramolecular disulfide bond intact; N-terminus probably acetylated (surmise); also called WT SOD1; WT apo-SOD1; source: demetalated by dialysis, remetalated with ZnSO4 where stated
T1 sequence (P00441 whole entry): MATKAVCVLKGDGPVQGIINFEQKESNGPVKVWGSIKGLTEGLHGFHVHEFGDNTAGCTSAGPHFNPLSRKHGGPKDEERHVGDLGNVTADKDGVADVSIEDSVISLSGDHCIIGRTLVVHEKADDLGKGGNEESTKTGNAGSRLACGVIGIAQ

[2] = target: T1, WT Cu, Zn superoxide dismutase-1 …; assay: capillary electrophoresis; both homodimers as 4Zn-SOD1; 15 μM dimer each ([SOD1]total = 30 μM), followed over time; 10 mM potassium phosphate pH 7.4, CE at 22 °C, storage at 15 °C; KHet assumed from the fit extrapolated to t = 5000 min
[3] = target: T1, WT Cu, Zn superoxide dismutase-1 …; assay: capillary electrophoresis; both homodimers apo (metal-free, disulfide intact), mixed at 15 μM dimer each ([SOD1]total = 30 μM), followed over time; 10 mM potassium phosphate pH 7.4, CE at 22 °C, storage at 15 °C; KHet assumed from the fit extrapolated to t = 5000 min
[4] = target: T1, WT Cu, Zn superoxide dismutase-1 …; assay: capillary electrophoresis; binder (first named) as 4Zn-SOD1, target (second named, WT or TD) as apo-SOD1; 15 μM dimer each ([SOD1]total = 30 μM), followed over time; 10 mM potassium phosphate pH 7.4, CE at 22 °C, storage at 15 °C; KHet assumed from the fit extrapolated to t = 5000 min

B1: triply deamidated SOD1 (modeled with N26D/N131D/N139D substitutions), recombinant human (enzyme)
chain: not shown
notes: Cu, Zn superoxide dismutase-1 (SOD1), human, triple mutant N26D/N131D/N139D; printed mass of the apo subunit 15847 Da; Homodimer; disulfide intact; also called TD SOD1; TD; source: demetalated by dialysis, remetalated with ZnSO4 where stated
- assumed KHet (t = 5000 min) [1]: 2.27 ± 0.08
- kHet (rate constant of heterodimerization) [1]: 0.0066 min⁻¹
- assumed KHet (t = 5000 min) [2]: 2.13 ± 0.71
- kHet (rate constant of heterodimerization) [2]: 0.0038 min⁻¹
- assumed KHet (t = 5000 min) [3]: 2.34 ± 0.31
- kHet (rate constant of heterodimerization) [3]: 0.0128 min⁻¹
- assumed KHet (t = 5000 min) [4]: 2.09 ± 0.14
- kHet (rate constant of heterodimerization) [4]: 0.0041 min⁻¹
